We go through 1 molecule from patent publication CN114276439A (YUDOLONG SUZHOU MEDICAL SCIENCE AND TECH LIMITED COMPANY, dated 2022).

In experiment [1] the target is T1, HPV11 VLP (HPV11, UniProt P04012 1-501).
T1 sequence: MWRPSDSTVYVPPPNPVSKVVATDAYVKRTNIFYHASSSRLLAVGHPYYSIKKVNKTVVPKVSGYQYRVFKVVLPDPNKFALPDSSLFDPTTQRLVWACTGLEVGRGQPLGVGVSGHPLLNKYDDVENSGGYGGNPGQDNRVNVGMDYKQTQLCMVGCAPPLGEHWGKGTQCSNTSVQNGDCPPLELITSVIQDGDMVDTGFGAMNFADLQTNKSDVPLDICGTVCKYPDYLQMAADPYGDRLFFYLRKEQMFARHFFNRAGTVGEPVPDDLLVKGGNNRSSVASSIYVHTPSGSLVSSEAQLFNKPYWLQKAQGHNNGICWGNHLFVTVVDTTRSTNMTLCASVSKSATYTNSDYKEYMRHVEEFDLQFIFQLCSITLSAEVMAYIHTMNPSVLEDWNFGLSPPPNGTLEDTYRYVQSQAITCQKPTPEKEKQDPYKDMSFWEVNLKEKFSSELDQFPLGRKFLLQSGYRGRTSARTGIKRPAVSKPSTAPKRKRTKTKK
In words: indirect ELISA, VLP coated at 0.25 μg/ml.

The target of experiment [2] is T2, HPV16假病毒 (HPV16, UniProt P03101 1-505).
T2 sequence: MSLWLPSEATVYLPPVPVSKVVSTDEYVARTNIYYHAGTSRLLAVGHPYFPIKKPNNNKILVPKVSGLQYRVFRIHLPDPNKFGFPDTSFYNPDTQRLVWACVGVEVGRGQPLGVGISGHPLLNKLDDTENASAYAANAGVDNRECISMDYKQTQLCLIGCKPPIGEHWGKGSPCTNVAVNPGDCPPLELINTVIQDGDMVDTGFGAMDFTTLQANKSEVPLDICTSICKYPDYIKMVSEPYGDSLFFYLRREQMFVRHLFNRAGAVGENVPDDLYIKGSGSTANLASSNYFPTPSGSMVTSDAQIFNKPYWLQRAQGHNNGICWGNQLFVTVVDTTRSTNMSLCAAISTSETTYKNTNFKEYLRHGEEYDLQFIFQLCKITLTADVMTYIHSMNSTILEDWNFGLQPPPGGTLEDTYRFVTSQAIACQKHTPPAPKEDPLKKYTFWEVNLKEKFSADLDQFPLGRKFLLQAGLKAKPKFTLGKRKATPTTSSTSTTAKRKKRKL
In words: cell-based or functional assay.

B1: 单克隆抗体50A11 (antibody, V domains shown)
VH: DVQLQESGPGLVKPSQSLSLTCTVTGYSITSYHAWNWIRQFPGNKLEWMAYINYSGKTSYNPSLKSRISITRDTSKNQFLLQLNSVTTEDTATYYCARVDWEGNYFDYWGQGTTVTVSS
VL: DVLMTQTPLSLPVSLGDQASISCRSSQSILHSNGNTYLQWYLQKPGQSPNLLIYKVSNRFSGVPDRFSGSGSGTDFTLKISRVEAEDLGVYYCFQGSHVPPTFGGGTKLEIKR
notes: constant regions are not
On to B1, for which the binding result in experiment [1] was “no binding”. The same molecule displayed an HPV16假病毒中和反应IC50 in experiment [2] of 1.35 ng/mL.
